What was measured:
Murine TNFR2 = target: T1, Murine TNFR2 (mouse, UniProt P25119 23-474); assay: equilibrium binding of the GpL fusion protein (label C27-IgG1-LC:GpL) to HEK293 cells transiently transfected with murine TNFR2; empty-vector cells as non-specific binding
T1 construct: Expressed on transiently transfected HEK293 cells; also called mouse TNFR2; TNFR2(mu)
T1 sequence: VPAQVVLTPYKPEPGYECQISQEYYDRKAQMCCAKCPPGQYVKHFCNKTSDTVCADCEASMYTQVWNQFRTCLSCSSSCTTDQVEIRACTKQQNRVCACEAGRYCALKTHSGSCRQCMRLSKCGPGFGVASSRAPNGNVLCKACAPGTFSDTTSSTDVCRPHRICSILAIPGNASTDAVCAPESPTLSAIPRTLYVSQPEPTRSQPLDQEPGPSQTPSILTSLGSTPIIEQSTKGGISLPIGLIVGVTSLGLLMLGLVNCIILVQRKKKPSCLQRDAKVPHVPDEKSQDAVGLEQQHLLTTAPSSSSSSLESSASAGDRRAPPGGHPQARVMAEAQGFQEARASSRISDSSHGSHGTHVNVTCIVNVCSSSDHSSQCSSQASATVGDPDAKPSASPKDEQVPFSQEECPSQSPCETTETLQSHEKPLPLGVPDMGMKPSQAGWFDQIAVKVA
Procedure: FIG. 14—Binding of TNFR2-specific antibodies to human, murine and cynomolgus TNFR2. HEK293 cells were transiently transfected with human, murine and cynomologus TNFR2 or empty vector. Equilibrium binding of the indicated anti-TNFR2 antibody GpL fusion proteins were then determined at 37° C. Binding to empty vector transfected cells was determined to obtain unspecific binding values.
Affinity (KD-values) of TNFR2-targeting antibodies to human, cynomolgus monkey, and murine TNFR2 was evaluated by cellular equilibrium binding studies. Therefore, HEK293T cells were transiently transfected with human, cynomolgus or mouse TNFR2 encoding expression plasmids or an empty vector control (EV) using the PEI method. […] Cell associated luciferase activity (RLU; relative light units) was detected with LUmo luminometer (anthos Mikrosysteme GmbH, Friesoythe, Germany) directly after adding 1.5 μM of the substrate coelenterazin (Carl Roth, Karlsruhe, Germany).
The binding properties of anti-TNFR2 antibodies from different clones were assessed. […] Equilibrium binding of the indicated anti-TNFR2 antibody GpL fusion proteins was then determined at 37° C. Binding to empty vector transfected cells was determined to obtain unspecific binding values.

[1] = target: T2, Extracellular domain of TNFR1 with a GPI anchor domain (UniProt P19438 30-211); assay: binding of the GpL tagged protein to HEK293 cells transiently transfected with the TNFR1 extracellular domain with GPI anchor; empty-vector cells as non-specific binding
T2 construct: extracellular domain; not shown: GPI anchor domain
T2 sequence (looked up): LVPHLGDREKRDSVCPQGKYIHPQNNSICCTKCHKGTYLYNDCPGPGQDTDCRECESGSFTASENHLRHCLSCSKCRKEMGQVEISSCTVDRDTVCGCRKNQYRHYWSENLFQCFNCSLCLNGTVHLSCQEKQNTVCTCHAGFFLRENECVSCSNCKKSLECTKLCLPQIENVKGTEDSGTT
Procedure: HEK293 cells were transiently transfected with: (i) a TNFR2 expression plasmid; (ii) an expression plasmid encoding the extracellular domain of TNFR1 with a GPI anchor domain; or (iii) empty vector (ev). Next day, the indicated GpL tagged binding molecules were added at the indicated concentration to the cells. After incubation for 1 hour at 37° C., followed by two washes with PBS, the remaining cell bound GpL activity was determined.
An experiment was performed to illustrate the ability of the binding molecules provided to bind TNFR2, but not TNFR1. HEK293 cells were transiently transfected with: (i) a TNFR2 expression plasmid; (ii) an expression plasmid encoding the extracellular domain of TNFR1 with a GPI anchor domain; or (iii) empty vector (ev). […] The proteins indicated in FIG. 27 were added at the indicated concentration to the HEK293 cells. After incubation for 1 hour at 37° C., followed by two washes with PBS, the remaining cell bound GpL activity was determined.

binding result (Murine TNFR2): no binding (tested: 1000 ng/ml)
binding result [1]: no binding (tested: 750 ng/ml)
B1: C27-IgG1(N297A)-LC:GpL (antibody)
light: EVKLVPRQLDYKDDDDKELNIVMTQSPKSLSMSVGERVTLNCKASENVKTYVSWYQQKPEQSPKLLIYGASNRYTGVPDRFTGSGSATDFTLTISSVQAEDLADYHCGQSYSYPFTFGAGTKLERKGSEIKRTVAAPSVFIFPPSDEQLKSGTASVVCLLNNFYPREAKVQWKVDNALQSGNSQESVTEQDSKDSTYSLSSTLTLSKADYEKHKVYACEVTHQGLSSPVTKSFNRGECLEKPTENNEDFNIVAVASNFATTDLDADRGKLPGKKLPLEVLKEMEANARKAGCTRGCLICLSHIKCTPKMKKFIPGRCHTYEGDKESAQGGIGEAIVDIPEIPGFKDLEPMEQFIAQVDLCVDCTTGCLKGLANVQCSDLLKKWLPQRCATFASKIQGQVDKIKGAGGD
heavy: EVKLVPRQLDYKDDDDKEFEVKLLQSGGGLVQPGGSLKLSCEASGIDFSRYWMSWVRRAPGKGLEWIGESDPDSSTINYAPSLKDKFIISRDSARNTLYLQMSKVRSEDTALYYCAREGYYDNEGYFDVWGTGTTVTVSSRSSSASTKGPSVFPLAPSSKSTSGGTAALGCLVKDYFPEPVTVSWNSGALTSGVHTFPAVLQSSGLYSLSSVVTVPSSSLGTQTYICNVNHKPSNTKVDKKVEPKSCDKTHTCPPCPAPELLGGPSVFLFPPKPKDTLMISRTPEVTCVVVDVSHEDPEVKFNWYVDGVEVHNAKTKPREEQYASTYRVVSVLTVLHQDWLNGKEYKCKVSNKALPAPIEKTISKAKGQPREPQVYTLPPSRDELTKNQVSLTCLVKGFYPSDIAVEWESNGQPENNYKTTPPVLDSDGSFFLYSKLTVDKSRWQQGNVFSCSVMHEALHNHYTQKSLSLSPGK
notes: copies: 2 + 2

Reference: US20240190983A1 (JULIUS MAXIMILIANS UNIVERSIT T W RZBURG, published 2024)
